Reference: publication doi:10.1101/2025.03.14.643404 (2025)

How the values were obtained:
[1] = target: T1, BCL6^BTB (residues 5-129; C8Q, C67R, C84N), tags cleaved (pSG219C) (human, UniProt P41182 5-129, C8Q | C67R | C84N); assay: ITC; BCL6 binding to p300:TCIP3 binary complex (ternary, alpha 13)
[2] = target: T1, BCL6^BTB (residues 5-129; C8Q, C67R, …); assay: ITC; p300 binding to BCL6:TCIP3 binary complex (ternary, alpha 3.5)

B1: 6xHis-p300^BD (p300 bromodomain) (domain or fragment)
chain: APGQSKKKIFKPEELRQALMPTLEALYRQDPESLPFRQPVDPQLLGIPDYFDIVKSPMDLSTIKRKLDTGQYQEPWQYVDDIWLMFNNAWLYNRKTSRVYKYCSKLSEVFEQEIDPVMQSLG
In the case of B1, the Kd [1] is reported as 19.8 nM and the Kd [2] is reported as 2.37 nM.
